Percent infected data for 13 substances are collected here from the supplement of paper PMC3353916.

± gives the standard deviation of the averaged measurements.

This data set deals with Sindbis virus TE/5'2J-GFP. In words: percent infected (GFP+ in RFP+ ISG-expressing cells); higher = more infection (less antiviral activity). How it is done:
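Confirmatory testing of 87 ISGs. Triplicate wells of BHK/HA-Zeo (control) or BHK/NZAP-Zeo (ZAP) cells were transduced with lentiviruses co-expressing a human ISG plus TagRFP, then infected 48 h later with SINV TE/5'2J-GFP (moi 5). The % GFP+ cells among RFP+ cells was measured by flow cytometry at 8 h post infection. Fluc lentivirus served as control. Three independent experiments.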

Where [1] appears, read: experiment: confirmatory screen 1, BHK/HA-Zeo (control).
The mark [2] stands for this setting: experiment: confirmatory screen 1, BHK/NZAP-Zeo (ZAP).
Where [3] appears, read: experiment: confirmatory screen 2, BHK/HA-Zeo (control).
Setting [4] is: experiment: confirmatory screen 2, BHK/NZAP-Zeo (ZAP).
[5] abbreviates: experiment: confirmatory screen 3, BHK/HA-Zeo (control).
The mark [6] stands for this setting: experiment: confirmatory screen 3, BHK/NZAP-Zeo (ZAP).
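Further: Interferon-defective BHK-21 derivatives, ZAP line overexpressing the rat ZAP N-terminal zinc finger domain fused to Zeocin resistance, GFP scored within live singlet TagRFP+ cells.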

With “MQEGELAISPISPVAAMPPLGTHVQARCEAQINLLGEGGICKLPGRLRIQPALWSREDVLHWLRWAEQEYSLPCTAEHGFEMNGRALCILTKDDFRHRAPSSGDVLYELLQYIKTQRRALVCGPFFGGIFRLKTPTQHSPVPPEEVTGPSQMDTRRGHLLQPPDPGLTSNFGHLDDPGLARWTPGKEESLNLCHCAELGCRTQGVCSFPAMPQAPIDGRIADCRLLWDYVYQLLLDTRYEPYIKWEDKDAKIFRVVDPNGLARLWGNHKNRVNMTYEKMSRALRHYYKLNIIKKEPGQKLLFRFLKTPGKMVQDKHSHLEPLESQEQDRIEFKDKRPEISP [ETV7]”, the percent infected came out at 95.31 ± 0.45% under setting [1]; 67.2 ± 4% under setting [2]; 95.82 ± 0.54% under setting [3]; 95.28 ± 0.2% under setting [4]; 93 ± 1.6% under setting [5]; 93.56 ± 0.55% under setting [6].

As for “MRRLWGAARKPSGAGWEKEWAEAPQEAPGAWSGRLGPGRSGRKGRAVPGWASWPAHLALAARPARHLGGAGQGPRPLHSGTAPFHSRASGERQRRLEPQLQHESRCRSSTPADAWRAEAALPVRAMGAPWGSPTAAAGGRRGWRRGRGLPWTVCVLAAAGLTCTALITYACWGQLPPLPWASPTPSRPVGVLLWWEPFGGRDSAPRPPPDCRLRFNISGCRLLTDRASYGEAQAVLFHHRDLVKGPPDWPPPWGIQAHTAEEVDLRVLDYEEAAAAAEALATSSPRPPGQRWVWMNFESPSHSPGLRSLASNLFNWTLSYRADSDVFVPYGYLYPRSHPGDPPSGLAPPLSRKQGLVAWVVSHWDERQARVRYYHQLSQHVTVDVFGRGGPGQPVPEIGLLHTVARYKFYLAFENSQHLDYITEKLWRNALLAGAVPVVLGPDRANYERFVPRGAFIHVDDFPSASSLASYLLFLDRNPAVYRRYFHWRRSYAVHITSFWDEPWCRVCQAVQRAGDRPKSIRNLASWFER [FUT4]”, the percent infected under setting [1] stood at 94.45 ± 0.48%; the percent infected under setting [2] stood at 62.4 ± 5.3%; the percent infected under setting [3] was determined as 92 ± 1.1%; the percent infected under setting [4] was determined as 94.23 ± 0.27%; the percent infected under setting [5] came out at 89 ± 2.8%; the percent infected under setting [6] amounted to 92.68 ± 0.55%.

For the substance “MPVERMRMRPWLEEQINSNTIPGLKWLNKEKKIFQIPWMHAARHGWDVEKDAPLFRNWAIHTGKHQPGVDKPDPKTWKANFRCAMNSLPDIEEVKDKSIKKGNNAFRVYRMLPLSERPSKKGKKPKTEKEDKVKHIKQEPVESSLGLSNGVSDLSPEYAVLTSTIKNEVDSTVNIIVVGQSHLDSNIENQEIVTNPPDICQVVEVTTESDEQPVSMSELYPLQISPVSSYAESETTDSVPSDEESAEGRPHWRKRNIEGKQYLSNMGTRGSYLLPGMASFVTSNKPDLQVTIKEESNPVPYNSSWPPFQDLPLSSSMTPASSSSRPDRETRASVIKKTSDITQARVKSC [IRF2]”, the percent infected runs as follows: under setting [1], 81 ± 3.7%; under setting [2], 2.58 ± 0.4%; under setting [3], 94.34 ± 0.74%; under setting [4], 60.4 ± 1.6%; under setting [5], 89.4 ± 1.2%; under setting [6], 39.2 ± 2.8%.

In turn, PCTK2 showed a percent infected under setting [1] of 97.15 ± 0.48%; a percent infected under setting [2] of 70.7 ± 3.2%; a percent infected under setting [3] of 96.52 ± 0.12%; a percent infected under setting [4] of 94.42 ± 0.39%; a percent infected under setting [5] of 83.84 ± 0.21%; a percent infected under setting [6] of 86.8 ± 1.1%.

Turning to “MASVIPASNRSMRSDRNTYVGKRFVHVKNPYLDLMDEDILYHLDLGTKTHNLPAMFGDVKFVCVGGSPNRMKAFALFMHKELGFEEAEEDIKDICAGTDRYCMYKTGPVLAISHGMGIPSISIMLHELIKLLHHARCCDVTIIRIGTSGGIGIAPGTVVITDIAVDSFFKPRFEQVILDNIVTRSTELDKELSEELFNCSKEIPNFPTLVGHTMCTYDFYEGQGRLDGALCSFSREKKLDYLKRAFKAGVRNIEMESTVFAAMCGLCGLKAAVVCVTLLDRLDCDQINLPHDVLVEYQQRPQLLISNFIRRRLGLCD [UPP2]”, the percent infected was determined as 74.9 ± 4.2% under setting [1]; 43.1 ± 2.3% under setting [2]; 89.79 ± 0.72% under setting [3]; 93.4 ± 1.3% under setting [4]; 83.4 ± 1.3% under setting [5]; 88.3 ± 1.5% under setting [6].

As to “MSSENCFVAENSSLHPESGQENDATSPHFSTRHEGSFQVPVLCAVMNVVFITILIIALIALSVGQYNCPGQYTFSMPSDSHVSSCSEDWVGYQRKCYFISTVKRSWTSAQNACSEHGATLAVIDSEKDMNFLKRYAGREEHWVGLKKEPGHPWKWSNGKEFNNWFNVTGSDKCVFLKNTEVSSMECEKNLYWICNKPYK [CD69]”, the percent infected stood at 95.94 ± 0.47% under setting [1]; 68.2 ± 4.8% under setting [2]; 94.01 ± 0.54% under setting [3]; 94.27 ± 0.39% under setting [4]; 91.7 ± 1.1% under setting [5]; 93.02 ± 0.27% under setting [6].

In the case of “MLTELEKALNSIIDVYHKYSLIKGNFHAVYRDDLKKLLETECPQYIRKKGADVWFKELDINTDGAVNFQEFLILVIKMGVAAHKKSHEESHKE [S100A8]”, the percent infected under setting [1] came out at 80.1 ± 1.9%; the percent infected under setting [2] was found to be 54.4 ± 3.1%; the percent infected under setting [3] was determined as 91.3 ± 1.5%; the percent infected under setting [4] came to 92.37 ± 0.69%; the percent infected under setting [5] worked out at 82.1 ± 1.6%; the percent infected under setting [6] worked out at 89.4 ± 1%.

“MPRQLSAAAALFASLAVILHDGSQMRAKAFPETRDYSQPTAAATVQDIKKPVQQPAKQAPHQTLAARFMDGHITFQTAATVKIPTTTPATTKNTATTSPITYTLVTTQATPNNSHTAPPVTEVTVGPSLAPYSLPPTITPPAHTTGTSSSTVSHTTGNTTQPSNQTTLPATLSIALHKSTTGQKPVQPTHAPGTTAAAHNTTRTAAPASTVPGPTLAPQPSSVKTGIYQVLNGSRLCIKAEMGIQLIVQDKESVFSPRRYFNIDPNATQASGNCGTRKSNLLLNFQGGFVNLTFTKDEESYYISEVGAYLTVSDPETIYQGIKHAVVMFQTAVGHSFKCVSEQSLQLSAHLQVKTTDVQLQAFDFEDDHFGNVDECSSDYTIVLPVIGAIVVGLCLMGMGVYKIRLRCQSSGYQRI [LAMP3]”: the percent infected was 95.8 ± 1.7% under setting [1]; 52.1 ± 5.6% under setting [2]; 97.55 ± 0.14% under setting [3]; 96.16 ± 0.23% under setting [4]; 86.4 ± 2.6% under setting [5]; 89.93 ± 0.19% under setting [6].

In the case of “MNTRNRVVNSGLGASPASRPTRDPQDPSGRQGELSPVEDQREGLEAAPKGPSRESVVHAGQRRTSAYTLIAPNINRRNEIQRIAEQELANLEKWKEQNRAKPVHLVPRRLGGSQSETEVRQKQQLQLMQSKYKQKLKREESVRIKKEAEEAELQKMKAIQREKSNKLEEKKRLQENLRREAFREHQQYKTAEFLSKLNTESPDRSACQSAVCGPQSSTWKLPILPRDHSWARSWAYRDSLKAEENRKLQKMKDEQHQKSELLELKRQQQEQERAKIHQTEHRRVNNAFLDRLQGKSQPGGLEQSGGCWNMNSGNSWGI [EPSTI1]”, the percent infected worked out at 96.8 ± 1.1% under setting [1]; 68.2 ± 2.1% under setting [2]; 96.8 ± 1.1% under setting [3]; 95.946 ± 0.041% under setting [4]; 94.88 ± 0.77% under setting [5]; 94.41 ± 0.1% under setting [6].

As to “MHLCGGNGLLTQTDPKEQQRQLKKQKNRAAAQRSRQKHTDKADALHQQHESLEKDNLALRKEIQSLQAELAWWSRTLHVHERLCPMDCASCSAPGLLGCWDQAEGLLGPGPQGQHGCREQLELFQTPGSCYPAQPLSPGPQPHDSPSLLQCPLPSLSLGPAVVAEPPVQLSPSPLLFASHTGSSLQGSSSKLSALQPSLTAQTAPPQPLELEHPTRGKLGSSPDNPSSALGLARLQSREHKPALSAATWQGLVVDPSPHPLLAFPLLSSAQVHF [BATF2]”, the percent infected reads like this: under setting [1], 90.1 ± 2.7%; under setting [2], 63.14 ± 0.42%; under setting [3], 95.85 ± 0.33%; under setting [4], 94.92 ± 0.24%; under setting [5], 93.14 ± 0.36%; under setting [6], 91.04 ± 0.55%.

For the substance “MSEIRKDTLKAILLELECHFTWNLLKEDIDLFEVEDTIGQQLEFLTTKSRLALYNLLAYVKHLKGQNKDALECLEQAEEIIQQEHSDKEEVRSLVTWGNYAWVYYHMDQLEEAQKYTGKIGNVCKKLSSPSNYKLECPETDCEKGWALLKFGGKYYQKAKAAFEKALEVEPDNPEFNIGYAITVYRLDDSDREGSVKSFSLGPLRKAVTLNPDNSYIKVFLALKLQDVHAEAEGEKYIEEILDQISSQPYVLRYAAKFYRRKNSWNKALELLKKALEVTPTSSFLHHQMGLCYRAQMIQIKKATHNRPKGKDKLKVDELISSAIFHFKAAMERDSMFAFAYTDLANMYAEGGQYSNAEDIFRKALRLENITDDHKHQIHYHYGRFQEFHRKSENTAIHHYLEALKVKDRSPLRTKLTSALKKLSTKRLCHNALDVQSLSALGFVYKLEGEKRQAAEYYEKAQKIDPENAEFLTALCELRLSI [IFIT5]”, the percent infected worked out at 81.6 ± 2.9% under setting [1]; 50.4 ± 1.2% under setting [2]; 95.17 ± 0.24% under setting [3]; 95.34 ± 0.45% under setting [4]; 88.13 ± 0.37% under setting [5]; 90.56 ± 0.79% under setting [6].

For “MPGKKARKNAQPSPARAPAELEVECATQLRRFGDKLNFRQKLLNLISKLFCSGT [PMAIP1]”, the percent infected is, setting by setting: under setting [1], 94.9 ± 1.1%; under setting [2], 87.9 ± 2.1%; under setting [3], 95.11 ± 0.24%; under setting [4], 93.22 ± 0.27%; under setting [5], 92.03 ± 0.31%; under setting [6], 92.36 ± 0.16%.

As to “MAATEISVLSEQFTKIKELELMPEKGLKEEEKDGVCREKDHRSPSELEAERTSGAFQDSVLEEEVELVLAPSEESEKYILTLQTVHFTSEAVELQDMSLLSIQQQEGVQVVVQQPGPGLLWLEEGPRQSLQQCVAISIQQELYSPQEMEVLQFHALEENVMVASEDSKLAVSLAETTGLIKLEEEQEKNQLLAERTKEQLFFVETMSGDERSDEIVLTVSNSNVEEQEDQPTAGQADAEKAKSTKNQRKTKGAKGTFHCDVCMFTSSRMSSFNRHMKTHTSEKPHLCHLCLKTFRTVTLLRNHVNTHTGTRPYKCNDCNMAFVTSGELVRHRRYKHTHEKPFKCSMCKYASVEASKLKRHVRSHTGERPFQCCQCSYASRDTYKLKRHMRTHSGEKPYECHICHTRFTQSGTMKIHILQKHGENVPKYQCPHCATIIARKSDLRVHMRNLHAYSAAELKCRYCSAVFHERYALIQHQKTHKNEKRFKCKHCSYACKQERHMTAHIRTHTGEKPFTCLSCNKCFRQKQLLNAHFRKYHDANFIPTVYKCSKCGKGFSRWINLHRHSEKCGSGEAKSAASGKGRRTRKRKQTILKEATKGQKEAAKGWKEAANGDEAAAEEASTTKGEQFPGEMFPVACRETTARVKEEVDEGVTCEMLLNTMDK [CTCFL]”, the percent infected runs as follows: under setting [1], 95.5 ± 1.9%; under setting [2], 68 ± 7.4%; under setting [3], 97.4 ± 0.23%; under setting [4], 95.98 ± 0.22%; under setting [5], 88.6 ± 1.2%; under setting [6], 86.4 ± 0.91%.
